Data on 14 molecules can be found in patent US20140356358A1 (Amgen, published 2014).

Where two headings read alike, the source gives them in different places.

The target of assay [1] is T1, human neonatal Fc receptor (hFcRn) (human, UniProt P55899 24-290; P61769 21-119).
T1 construct: Biotinylated in the ELISA, Octet and yeast assays; also called human FcRn; huFcRn
The assay can be described thus: BLI (Octet), association pH 6, dissociation pH 7.4. From the text: To further characterize some of the variant Fc-fragments identified by the phage ELISA, binding of the variant Fc-fragments to FcRn at pH 6 and 7.4 was characterized for a subset of the identified variant Fc-fragments. DNA encoding selected variant Fc-fragment isolates, all from library L5, was introduced into a mammalian expression vector, which was used to transfect 293 6E cells using deacylated PEI essentially as described by Thomas et al. (Proc. Natl. Acad. Sci. 102(16): 5679-5684, 2005), the relevant portions of which are incorporated herein by reference. […] Concentrations were calculated using a standard curve created with a purified Fc fusion protein.
Biotinylated hFcRn at 100 nM was captured on streptavidin (SA) biosensors (ForteBio Inc., 18-5019) off-line at RT for 2 hours. Using these biotinylated hFcRn-coated SA biosensors in the Octet Red® system, association and dissociation of unlabeled proteins can be detected in real time via […] of light. […] Three association and dissociation conditions were set up: (1) association at pH 6 and dissociation at pH 6; (2) association at pH 6 and dissociation at pH 7.4; and (3) association at pH 7.4 and dissociation at pH 7.4. SA biosensors coated with biotinylated hFcRN were dipped into buffer at a specific pH for 1 min and then soaked in the samples containing variant Fc-fragments or controls at a specific pH for 5 min to allow binding to FcRn. The Fc biosensors were then soaked in buffer at a specific pH for 5 minutes more to allow the bound Fc-fragments to dissociate from FcRn. Detection of binding and dissociation of the Fc-fragments was possible through the use of bio-layer interferometry as implemented using the Octet Red® system, so that binding and dissociation were detected in real time.

Assay [2] concerns the target T2, cynomolgus monkey FcRn (cynomolgus monkey, UniProt Q8SPV9 24-297; Q8SPW0 21-119, limits assumed).
T2 construct: also called Cynomolgus FcRn
The assay can be described thus: SPR competition pH 5.5.

Assay [3] concerns the target T1, human neonatal Fc receptor (hFcRn). Kind of assay: SPR competition pH 5.5.
Assay [4] deals with T2, cynomolgus monkey FcRn. Kind of assay: SPR competition pH 7.4.
Assay [5] addresses T2, cynomolgus monkey FcRn. Kind of assay: SPR competition pH 5.5. As for the experimental part: (§1) Binding of variant Fc-fragments to human and cynomolgus monkey FcRn was tested using a BIAcore® T100 analysis system (GE Healthcare Bio-Sciences AB Private Limited Liability Company, Uppsala, Sweden) at both pH 5.5 and pH 7.4. The test consisted of incubating various concentrations of the variant Fc-fragments or control Fc-fragments with a fixed amount of human or cynomolgus monkey FcRn under binding conditions and subsequently measuring the amount of free, unbound FcRn in these mixtures by binding to a surface (in a flow cell of a CM5 (Biacore) chip) on which an Fc-fragment was immobilized. […] Thus, the amount of unbound FcRn in the mixture was quantitatively ascertained by surface plasmon resonance through use of the BIAcore® T100 analysis system. […] Initially, a group of 23 variant-Fc-fragments (Fc-5-1 being considered a control) identified in the experiments described above were tested for binding to human FcRn.
(§2) To obtain a reasonable signal for the different molecules and conditions tested, different assay conditions were used. For assays at pH 5.5, 10 nM of human or cynomolgus monkey FcRn was mixed with serial dilutions of the variant and control Fc-fragments being tested (which ranged from 0.1˜2,000 nM) and incubated for 1 hour at room temperature in 10 mM sodium acetate, pH 5.5, 150 mM NaCl, 0.005% P20, 0.1 mg/mL BSA. As positive controls, […] human and cynomolgus monkey FcRn were each incubated in the same solution, for the same time, and at the same temperature described immediately above, but without an added Fc-fragment.
This is another data set of the same source.

The target in assay [6] is T1, human neonatal Fc receptor (hFcRn). Kind of assay: SPR competition pH 5.5. As for the experimental part: as §1, §2
This is another data set of the same source.

T1 sequence (P55899 24-290 limits assumed, chain 1 of 2): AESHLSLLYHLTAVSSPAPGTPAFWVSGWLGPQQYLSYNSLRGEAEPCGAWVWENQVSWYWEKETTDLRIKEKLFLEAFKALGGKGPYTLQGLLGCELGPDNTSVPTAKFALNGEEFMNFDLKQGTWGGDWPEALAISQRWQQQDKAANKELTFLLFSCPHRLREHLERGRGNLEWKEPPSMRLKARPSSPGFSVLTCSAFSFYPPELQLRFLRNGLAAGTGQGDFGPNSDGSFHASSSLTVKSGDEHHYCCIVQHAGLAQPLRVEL
T1 sequence (P61769 21-119 limits assumed, chain 2 of 2): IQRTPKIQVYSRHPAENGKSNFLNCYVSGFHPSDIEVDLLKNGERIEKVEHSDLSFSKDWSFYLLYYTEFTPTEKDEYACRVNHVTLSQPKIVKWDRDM
T2 sequence (Q8SPV9 24-297 limits assumed, chain 1 of 2): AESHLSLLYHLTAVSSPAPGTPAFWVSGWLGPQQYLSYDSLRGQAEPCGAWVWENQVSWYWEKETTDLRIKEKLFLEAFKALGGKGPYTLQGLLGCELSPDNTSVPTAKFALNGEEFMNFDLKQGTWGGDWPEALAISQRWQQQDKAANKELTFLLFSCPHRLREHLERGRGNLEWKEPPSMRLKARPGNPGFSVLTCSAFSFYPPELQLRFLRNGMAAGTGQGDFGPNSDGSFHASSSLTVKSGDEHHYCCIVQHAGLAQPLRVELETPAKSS
T2 sequence (Q8SPW0 21-119 limits assumed, chain 2 of 2): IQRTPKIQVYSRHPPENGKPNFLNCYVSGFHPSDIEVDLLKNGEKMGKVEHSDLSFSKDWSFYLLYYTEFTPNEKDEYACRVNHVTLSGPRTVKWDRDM

B1: variant Fc-fragment 5-1-1 (other)
chain: EPKSCDKTHTCPPCPAPELLGGPSVFLFPPKPKDTLMISRTPEVTCVVVDVSHEDPEVKFNWYVDGVEVHNAKTKPREEQYNSTYRVVSVLTVLHQDWLNGKEYKCKVSNKALPAPIEKTISKAKGQPREPQVYTLPPSRDELTKNQVSLTCLVKGFYPSDIAVEWEGGCGMPIEFCGGSNGQPENNYKTTPPVLDSDGSFFLYSKLTVDKSRWQQGNVFSCSVMHEALHNHYTQKSLSLSPGK
B1: the binding result in assay [1] was “binds”.

B2: variant Fc-fragment 5-1-5 (other)
chain: EPKSCDKTHTCPPCPAPELLGGPSVFLFPPKPKDTLMISRTPEVTCVVVDVSHEDPEVKFNWYVDGVEVHNAKTKPREEQYNSTYRVVSVLTVLHQDWLNGKEYKCKVSNKALPAPIEKTISKAKGQPREPQVYTLPPSRDELTKNQVSLTCLVKGFYPSDIAVEWESNGQPGGCGMPIEFCGGENNYKTTPPVLDSDGSFFLYSKLTVDKSRWQQGNVFSCSVMHEALHNHYTQKSLSLSPGK
For B2, the binding result in assay [1] was “binds”.

B3: variant Fc-fragment 5-1-9 (other)
chain: EPKSCDKTHTCPPCPAPELLGGPSVFLFPPKPKDTLMISRTPEVTCVVVDVSHEDPEVKFNWYVDGVEVHNAKTKPREEQYNSTYRVVSVLTVLHQDWLNGKEYKCKVSNKALPAPIEKTISKAKGQPREPQVYTLPPSRDELTKNQVSLTCLVKGFYPSDIAVEWESGGCGMPIEFCGGPENNYKTTPPVLDSDGSFFLYSKLTVDKSRWQQGNVFSCSVMHEALHNHYTQKSLSLSPGK
With B3, the binding result in assay [1] is given as “binds”.

B4: variant Fc-fragment 5-1-8 (other)
chain: EPKSCDKTHTCPPCPAPELLGGPSVFLFPPKPKDTLMISRTPEVTCVVVDVSHEDPEVKFNWYVDGVEVHNAKTKPREEQYNSTYRVVSVLTVLHQDWLNGKEYKCKVSNKALPAPIEKTISKAKGQPREPQVYTLPPSRDELTKNQVSLTCLVKGFYPSDIAVEWESNGQPENNGGCGMPIEFCGGYKTTPPVLDSDGSFFLYSKLTVDKSRWQQGNVFSCSVMHEALHNHYTQKSLSLSPGK
Take B4: the binding result in assay [1] is reported as “binds”.

B5: variant Fc-fragment 5-1-2 (other)
chain: EPKSCDKTHTCPPCPAPELLGGPSVFLFPPKPKDTLMISRTPEVTCVVVDVSHEDPEVKFNWYVDGVEVHNAKTKPREEQYNSTYRVVSVLTVLHQDWLNGKEYKCKVSNKALPAPIEKTISKAKGQPREPQVYTLPPSRDELTKNQVSLTCLVKGFYPSDIAVEWESGGCGMPIEFCGGNGQPENNYKTTPPVLDSDGSFFLYSKLTVDKSRWQQGNVFSCSVMHEALHNHYTQKSLSLSPGK
Take B5: in assay [1], the binding result is “binds”.

B6: variant Fc-fragment Fc-5-106-M4I (other)
chain: EPKSCDKTHTCPPCPAPELLGGPSVFLFPPKPKDTLMISRTPEVTCVVVDVSHEDPEVKFNWYVDGVEVHNAKTKPREEQYNSTYRVVSVLTVLHQDWLNGKEYKCKVSNKALPAPIEKTISKAKGQPREPQVYTLPPSRDELTKNQVSLTCLVKGFYPSDIAVEWESNGGCVFNIFNCGGGQPENNYKTTPPVLDSDGSFFLYSKLTVDKSRWQQGNVFSCSVMHEALHNHYTQKSLSLSPGK
As to B6, the EC50 with cynomolgus monkey FcRn [2] came to 3.2 nM; in assay [3] it was 2.6 nM; in the assay with cynomolgus monkey FcRn [4] it was 970 nM.

B7: variant Fc-fragment 5-1-4 (other)
chain: EPKSCDKTHTCPPCPAPELLGGPSVFLFPPKPKDTLMISRTPEVTCVVVDVSHEDPEVKFNWYVDGVEVHNAKTKPREEQYNSTYRVVSVLTVLHQDWLNGKEYKCKVSNKALPAPIEKTISKAKGQPREPQVYTLPPSRDELTKNQVSLTCLVKGFYPSDIAVEWESNGQGGCGMPIEFCGGPENNYKTTPPVLDSDGSFFLYSKLTVDKSRWQQGNVFSCSVMHEALHNHYTQKSLSLSPGK
With B7, the binding result in assay [1] is given as “binds”.

B8: variant Fc-fragment Fc-5-106 (other)
chain: EPKSCDKTHTCPPCPAPELLGGPSVFLFPPKPKDTLMISRTPEVTCVVVDVSHEDPEVKFNWYVDGVEVHNAKTKPREEQYNSTYRVVSVLTVLHQDWLNGKEYKCKVSNKALPAPIEKTISKAKGQPREPQVYTLPPSRDELTKNQVSLTCLVKGFYPSDIAVEWESNGGCVFNMFNCGGGQPENNYKTTPPVLDSDGSFFLYSKLTVDKSRWQQGNVFSCSVMHEALHNHYTQKSLSLSPGK
notes: soluble elsewhere
With B8, the EC50 came to 3.6 nM in the assay with cynomolgus monkey FcRn [5], 5.3 nM in assay [6], 4.6 nM in the assay with cynomolgus monkey FcRn [2] and 5.4 nM in assay [3].

B9: variant Fc-fragment Fc-5-106-M4V (other)
chain: EPKSCDKTHTCPPCPAPELLGGPSVFLFPPKPKDTLMISRTPEVTCVVVDVSHEDPEVKFNWYVDGVEVHNAKTKPREEQYNSTYRVVSVLTVLHQDWLNGKEYKCKVSNKALPAPIEKTISKAKGQPREPQVYTLPPSRDELTKNQVSLTCLVKGFYPSDIAVEWESNGGCVFNVFNCGGGQPENNYKTTPPVLDSDGSFFLYSKLTVDKSRWQQGNVFSCSVMHEALHNHYTQKSLSLSPGK
For B9, the values for the EC50 (in the assay with cynomolgus monkey FcRn [2]; in assay [3]) were 5 nM and 6.2 nM, respectively.

B10: variant Fc-fragment 5-1-3 (other)
chain: EPKSCDKTHTCPPCPAPELLGGPSVFLFPPKPKDTLMISRTPEVTCVVVDVSHEDPEVKFNWYVDGVEVHNAKTKPREEQYNSTYRVVSVLTVLHQDWLNGKEYKCKVSNKALPAPIEKTISKAKGQPREPQVYTLPPSRDELTKNQVSLTCLVKGFYPSDIAVEWESNGGGCGMPIEFCGGQPENNYKTTPPVLDSDGSFFLYSKLTVDKSRWQQGNVFSCSVMHEALHNHYTQKSLSLSPGK
On to B10, for which, in assay [1], the binding result is on record as “binds”.

B11: variant Fc-fragment Fc-5-106-M4T (other)
chain: EPKSCDKTHTCPPCPAPELLGGPSVFLFPPKPKDTLMISRTPEVTCVVVDVSHEDPEVKFNWYVDGVEVHNAKTKPREEQYNSTYRVVSVLTVLHQDWLNGKEYKCKVSNKALPAPIEKTISKAKGQPREPQVYTLPPSRDELTKNQVSLTCLVKGFYPSDIAVEWESNGGCVFNTFNCGGGQPENNYKTTPPVLDSDGSFFLYSKLTVDKSRWQQGNVFSCSVMHEALHNHYTQKSLSLSPGK
As to B11, the EC50 with cynomolgus monkey FcRn [2] was found to be 8.3 nM; in assay [3], 10 nM.

B12: variant Fc-fragment 5-1-6 (other)
chain: EPKSCDKTHTCPPCPAPELLGGPSVFLFPPKPKDTLMISRTPEVTCVVVDVSHEDPEVKFNWYVDGVEVHNAKTKPREEQYNSTYRVVSVLTVLHQDWLNGKEYKCKVSNKALPAPIEKTISKAKGQPREPQVYTLPPSRDELTKNQVSLTCLVKGFYPSDIAVEWESNGQPEGGCGMPIEFCGGNNYKTTPPVLDSDGSFFLYSKLTVDKSRWQQGNVFSCSVMHEALHNHYTQKSLSLSPGK
In the case of B12, the binding result in assay [1] is on record as “binds”.

B13: variant Fc-fragment 5-1-7 (other)
chain: EPKSCDKTHTCPPCPAPELLGGPSVFLFPPKPKDTLMISRTPEVTCVVVDVSHEDPEVKFNWYVDGVEVHNAKTKPREEQYNSTYRVVSVLTVLHQDWLNGKEYKCKVSNKALPAPIEKTISKAKGQPREPQVYTLPPSRDELTKNQVSLTCLVKGFYPSDIAVEWESNGQPENGGCGMPIEFCGGNYKTTPPVLDSDGSFFLYSKLTVDKSRWQQGNVFSCSVMHEALHNHYTQKSLSLSPGK
Consider B13, for which, in assay [1], the binding result is “binds”.

B14: variant Fc-fragment 5-1-10 (other)
chain: EPKSCDKTHTCPPCPAPELLGGPSVFLFPPKPKDTLMISRTPEVTCVVVDVSHEDPEVKFNWYVDGVEVHNAKTKPREEQYNSTYRVVSVLTVLHQDWLNGKEYKCKVSNKALPAPIEKTISKAKGQPREPQVYTLPPSRDELTKNQVSLTCLVKGFYPSDIAVEWESGGGCGMPIEFCGGGPENNYKTTPPVLDSDGSFFLYSKLTVDKSRWQQGNVFSCSVMHEALHNHYTQKSLSLSPGK
On to B14, for which the binding result in assay [1] is listed as “binds”.
